Tests used:
[1] = confocal microscopy, apical marker gp135, MDCKII; details: glycan lost; control: wild type
[2] = immunoblot of PNGase F-treated MDCKII lysates, densitometry; details: glycan lost; control: wild type
[3] = immunoblot after 24 h 2 μM MG132; details: glycan lost; control: wild type
[4] = cycloheximide chase, immunoblot, MDCKII; details: glycan lost; control: wild type
[5] = confocal microscopy after 12 h cycloheximide; details: glycan lost; control: wild type
[6] = immunoblot, high vs low glucose medium, MDCKII; details: glycan lost; control: wild type
[7] = immunoblot of ABCC11 WT, with/without PNGase F, MDCKII; details: glycan lost; control: high glucose medium
[8] = immunoblot, ABCC11-EGFP in MDCKII, PNGase F-treated lysates; details: glycan lost; control: untreated cells
[9] = immunoblot, non-tagged ABCC11, adenovirus-infected MDCKII; details: glycan lost; control: untreated cells

ABCC11 (MRP8): Q838
localisation_or_trafficking [1]: no change | expression_or_secretion, percent_of_wt [2]: no change

ABCC11 (MRP8): Q838/844
other: MG132-sensitive degradation, fold_change [3]: increases, about 2-fold vs no significant difference | degradation_or_half_life, half_life [4]: decreases, about 6.2 vs about 12 | degradation_or_half_life [5]: decreases | other: glucose sensitivity of protein level [6]: abolishes | expression_or_secretion, percent_of_wt [2]: decreases

ABCC11 (MRP8): Q844
localisation_or_trafficking [1]: no change | expression_or_secretion, percent_of_wt [2]: no change

ABCC11 (MRP8): low glucose medium
expression_or_secretion [7]: decreases

ABCC11 (MRP8): tunicamycin (0.8, 4.0 μg/mL)
expression_or_secretion [8]: decreases

ABCC11 (MRP8): tunicamycin (4.0 μg/mL)
expression_or_secretion, other: percent of untreated control [9]: decreases

— PMC4900533
